In patent US20070196883A1, “ENZYME” (UNIVERSITY OF DUNDEE, priority 1999, published 2007):
Like-named read-outs stand apart in the source and are kept apart here. One block for each substance: values may come before it. Ends that are not written are not given here.

Legend:
His-PDK1 = target: T1, His-PDK1 (Homo sapiens, UniProt O15530); assay: Surface Plasmon Resonance (BiaCore) binding of His-PDK1 to GST-PIF / Region B peptide
T1 construct: made in house; host or cells: Sf21 insect cells (baculovirus, pFASTBAC HTb)
T1 sequence (O15530 1-556): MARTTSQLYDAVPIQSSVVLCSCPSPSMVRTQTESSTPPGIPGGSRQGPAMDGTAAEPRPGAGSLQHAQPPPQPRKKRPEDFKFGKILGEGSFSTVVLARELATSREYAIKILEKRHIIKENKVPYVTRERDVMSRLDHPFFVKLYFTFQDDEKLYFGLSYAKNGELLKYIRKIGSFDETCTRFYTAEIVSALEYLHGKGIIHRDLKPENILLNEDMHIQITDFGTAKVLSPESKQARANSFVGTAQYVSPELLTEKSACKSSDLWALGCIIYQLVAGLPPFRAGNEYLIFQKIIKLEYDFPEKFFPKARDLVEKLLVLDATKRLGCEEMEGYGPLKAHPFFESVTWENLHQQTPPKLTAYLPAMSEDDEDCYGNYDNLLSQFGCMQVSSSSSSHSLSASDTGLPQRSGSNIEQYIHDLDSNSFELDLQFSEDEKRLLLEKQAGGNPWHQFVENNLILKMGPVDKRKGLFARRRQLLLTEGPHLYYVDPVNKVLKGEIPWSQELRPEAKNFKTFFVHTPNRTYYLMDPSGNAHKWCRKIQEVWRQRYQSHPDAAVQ
Procedure: FIG. 12. Quantitative analysis of the binding of PDK1 to PIF. Surface Plasmon Resonance measurements were carried out on a BiaCore instrument as described in the methods section. […] The responses at steady state binding were recorded. […] All data are single determinations from a representative experiment that was repeated at least 3 times with similar results.
BiaCore measurements. GST-PIF was coupled through amine groups to the Sensor Chip CM5 according to the manufacturer's instructions. […] The 24 residue peptide overlapping Region B was biotinylated through its C-terminal Cys and bound to Avidin coated Sensor Chip SA. […] The decrease in steady state binding was used to determine the Kd of interaction between PDK1 and the peptide, according to the […] relationship. The measure of response in our experiments is termed RU; 1000 RU=1 ng/mm^2 of protein bound to the surface.

endogenous PDK1 = target: T2, endogenous PDK1 (Homo sapiens, UniProt O15530); assay: Association of endogenous PDK1 with GST-PIF proteins purified from 293 cells; format: binding; details: expressed in 293 cells, glutathione-Sepharose purified; PDK1 immunoblot and activity
T2 construct: endogenous in cells; host or cells: 293 cells
T2 sequence (O15530 1-556): T1 sequence (O15530 1-556)
Procedure: FIG. 3. Mapping the residues on PIF that are required for the interaction with PDK1. (A) 293 cells were transiently transfected with DNA constructs expressing either the wild type GST-PIF or the indicated point mutations of this protein. The cells were lysed and the GST fusion proteins purified by affinity chromatography on glutathione-Sepharose beads. Each GST-fusion protein was incubated for 30 min at 30° C. with GST-S473D-PKBα and MgATP in the presence or absence of phospholipid vesicles containing 100 μM PtdCho, 100 μM PtdSer, 10 μM sn-1-stearoyl-2-arachidonoyl-D-PtdIns(3,4,5)P3, and the increase in specific activity of GST-S473D-PKBα was determined relative to a control incubation in which the GST fusion protein was omitted. The basal activity of GST-S473D-PKBα was 3.5 U/mg. 2 μg of each protein was electrophoresed on a 10% SDS/polyacrylamide gel and either immunoblotted using a PDK1 antibody raised against whole protein to detect any endogenous PDK1, or stained with Coomassie blue to establish the level of expression of the GST-PIF protein. Similar results were obtained in 5 separate experiments using 2 or more preparations of the wild type and mutant GST-PIF proteins. (B) Yeast harbouring the pAS2-1 wild type PDK1 vector (“PDK1-Vector”) or the empty pAS2-1 vector (“Vector”) were transformed with pGAD10 plasmid coding for the expression of the wild type PIF or the indicated mutants of PIF. The resulting yeast strain was grown on SD-Leu-Trp-Ura-His+3-AT medium which only permits growth of yeast constructs in which GST-PIF and PDK1 are capable of interacting.
Expression of GST-fusion proteins in 293 cells. Up to twenty 10 cm diameter dishes of 293 cells were cultured and each dish transfected with 20 μg of pEBG2T DNA encoding the desired GST-fusion protein using a modified calcium phosphate method. In experiments described in FIG. 1 in which Myc-PDK1 constructs (pCMV5 vector) were coexpressed with GST-PIF (pEBG2T vector) or GST alone (empty pEBG2T vector) 10 μg of each construct was used. […]

PDK1 [1] = target: T3, PDK1 (Homo sapiens, UniProt O15530); assay: Yeast two hybrid interaction of PIF with PDK1; format: binding
T3 construct: expressed in transfected cells; host or cells: yeast strain Y166
T3 sequence (O15530 428-556): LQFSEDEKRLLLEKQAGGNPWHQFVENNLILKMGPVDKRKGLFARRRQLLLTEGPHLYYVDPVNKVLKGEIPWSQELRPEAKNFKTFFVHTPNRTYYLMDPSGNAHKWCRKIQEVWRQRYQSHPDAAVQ
Description: (§1) FIG. 1. Two hybrid interaction of PIF with the kinase domain of PDK1. Yeast were transformed with a pGAD10 plasmid (LEU2) harbouring the C-terminal 77 amino acids of PRK2 (termed PIF) in the presence of either a pAS2-1 plasmid (TRP1) coding for the expression of the wild type PDK1, the kinase domain of PDK1 (residues 1 to 404) or the PH domain of PDK1 (residues 428 to 556) or the empty pAS2-1 vector as a control (denoted by—(A). The position on the plate of each yeast strain is indicated in (A). In (B) the yeast are grown on SD-Leu and Trp deficient media in which all the strains of yeast are capable of growing independently of whether PIF is interacting with PDK1. An interaction between PIF and PDK1 leads to the expression of reporter genes coding for URA3 and HIS1 that will enable growth on SD-Leu-Trp-Ura-His+3-AT medium (C) as well as the induction of β-galactosidase gene expression (D). Alignment of the amino acid sequence of the C-terminal 77 amino acids of PRK2 with the equivalent region of AGC subfamily kinases indicated (E). Identical residues are denoted by white-on-black letters, and similar residues by grey boxes. PRK2 (SEQ ID NO:14; PRK1 (SEQ ID NO:15); PKBα (SEQ ID NO:16); P70S6k (SEQ ID NO:17); SGK (SEQ ID NO:18); PKCζ (SEQ ID NO:19); PKCα (SEQ ID NO:20); PKCβ (SEQ ID NO:21).
(§2) Myc-tagged human PDK1, kinase domain of PDK1 (residues 1-404) and the PH domain of PDK1 (428 to 556) were subcloned into the EcoRI/SalI of the yeast pAS2-1 vector. A yeast two hybrid screen was carried out using a human skeletal muscle library subcloned into the pGAD10 vector (Clontech) transformed into the yeast strain Y166. 4×10^6 yeast cells were transformed with pGAD10 library constructs and PDK1 constructs in the pAS2-1 vector. […] In this system interacting clones from the library are able to grow in medium lacking histidine and uracil and express β-galactosidase which was detected using the Clontech protocol. pGAD10 plasmids from interacting clones were isolated transferred to E. coli, and sequenced. […]

PDK1 [2] = target: T4, PDK1 (Homo sapiens, UniProt O15530); assay: Yeast two hybrid interaction of PIF with PDK1; format: binding; remark: listed apart in the source
T4 construct: expressed in transfected cells; host or cells: yeast strain Y166
T4 sequence (O15530 1-404): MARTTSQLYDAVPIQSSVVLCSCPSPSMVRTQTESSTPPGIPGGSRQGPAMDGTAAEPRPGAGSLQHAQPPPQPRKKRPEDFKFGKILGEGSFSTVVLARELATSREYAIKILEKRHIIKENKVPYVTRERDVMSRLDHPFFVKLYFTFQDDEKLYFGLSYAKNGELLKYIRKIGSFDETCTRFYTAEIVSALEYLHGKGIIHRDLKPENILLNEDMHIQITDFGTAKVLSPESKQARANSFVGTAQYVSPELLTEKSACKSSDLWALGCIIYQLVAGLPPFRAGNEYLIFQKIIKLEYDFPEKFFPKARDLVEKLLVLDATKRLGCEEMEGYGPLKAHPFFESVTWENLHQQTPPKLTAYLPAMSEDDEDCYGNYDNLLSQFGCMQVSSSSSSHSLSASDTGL
Description: as §1, §2

PDK1 [3] = target: T5, PDK1 (Homo sapiens, UniProt O15530); assay: Yeast two hybrid interaction of PIF with PDK1; format: binding; remark: listed apart in the source
T5 construct: expressed in transfected cells; host or cells: yeast strain Y166
T5 sequence (O15530 1-556): T1 sequence (O15530 1-556)
Description: as §1, §2

PDK1 [4] = assay: Activation of GST-ΔPH-PKBα by PDK1 with or without PIF and phosphoinositide; format: biochemical; details: absence of PtdIns(3,4,5)P3
Procedure: FIG. 8. Maximal activation of PKB by PDK1/PIF requires PtdIns(3,4,5)P3 to interact with both PKB and PDK1. […] The basal activity of GST-ΔPH-PKBα was 3.0 U/mg.
Measurement of PKBα activation after incubation with GST-PIF. This assay was carried out in 2 stages, as described previously; briefly, in the first, GST-PKBα was incubated with GST-PIF (or other indicated PDK1 proteins in the presence or absence of peptides) in the presence of MgATP and phospholipid vesicles.
In Stage 1, an 15 μl reaction mixture was set up containing 66.5 mM Tris/HCl pH 7.5, 0.13 mM EGTA, 0.13% (by vol) 2-mercaptoethanol, 3.3 μM PKI, 1.3 μM microcystin-LR, 13.3 mM Mg(Ac)2, 133 μM unlabelled ATP, 0.4 μM GST-PKBA, 133 μM PtdSer, 133 μM PtdCho in the presence or absence of 13.3 μM PtdIns(3,4,5)P3. The assay was initiated by the addition of 5 μl of 0.2 mg/ml GST-PIF (or other indicated proteins or peptides), after incubation for 30 min at 30° C., stage 2 of the assay was initiated by the addition of 30 μl of a mixture made up of Buffer B containing 2.5 μM PKI, 1 μM microcystin-LR, 10 mM Mg(Ac)2, 100 μM [γ^32P]ATP (200-400 cpm/pmol), 100 μM of the peptide RPRTAAF (SEQ ID NO:13) and 1.25% (by vol) Triton X-100. After 10 min at 30° C., the reactions were terminated by spotting the reaction mixture on to P81 phosphocellulose paper. The papers were washed in 75 mM phosphoric acid and analysed as described previously. A control reaction in which GST-PKBα was omitted was taken as the blank and was always less than 5% of the activity measured in the presence of GST-PKBα. The basal GST-PKBα activity is the activity measured in the absence of PDK1. 1 Unit of GST-PKBα activity was that amount of enzyme required to catalyse the phosphorylation of 1 nmol of the peptide RPRTAAF (SEQ ID NO:13) in 1 min. The assays were linear with time up to a final concentration of 3 U/ml of PDK1 activity in the assay.

Kd (His-PDK1; His-PDK1 0.5 μM mixed with free peptide, injected over immobilised peptide, read-out: Kd from competition by addition of free peptide): 1.5 µM
Kd (His-PDK1; immobilised and biotinylated 24 residue peptide, His-PDK1 injected, read-out: Kd): 0.8 µM
Substance: REPRILSEEEQEMFRDFDYIADWC [Region B peptide]

two hybrid interaction with the PH domain of PDK1 (PDK1 [1]): not
two hybrid interaction with the isolated kinase domain of PDK1 (PDK1 [2]): positive interaction
two hybrid interaction with full length PDK1 (PDK1 [3]): positive interaction
Substance: PIF: C-terminal 77 amino acids of PRK2
inhibition of the catalytic activity of PDK1 (PDK1 [4]): ~2 fold

Second part, the substance before the results:

Substance: Y979: GST-PIF mutant, Y979 mutated to Ala [Lipid Y979]
association of endogenous PDK1 with GST-PIF protein (endogenous PDK1): completely abolished

Substance: F974: GST-PIF mutant, F974 mutated to Ala [Lipid F974]
association of endogenous PDK1 with GST-PIF protein (endogenous PDK1): completely abolished

Substance: F977: GST-PIF mutant, F977 mutated to Ala [Lipid F977]
association of endogenous PDK1 with GST-PIF protein (endogenous PDK1): completely abolished
